IntAct's records for PubMed 10869553

B1: Protein S100-A4 (Mus musculus), P07091 (parent)
chain: MARPLEEALDVIVSTFHKYSGKEGDKFKLNKTELKELLTRELPSFLGKRTDEAAFQKVMSNLDSNRDNEVDFQEYCVFLSCIAMMCNEFFEGCPDKEPRKK
partner: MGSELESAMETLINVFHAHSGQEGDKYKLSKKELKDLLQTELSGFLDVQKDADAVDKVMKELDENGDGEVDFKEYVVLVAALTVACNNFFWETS

Variants of: B1
Conditions: with S100a1, P56565

effect of a mutation on the interaction	Variant
disrupting interaction	F72A
